Measured values reported in patent US20250051471A1 (WILLIAM ROBERT ARATHOON LIVING TRUST DATED AUGUST 29 2016, published 2025).

Tests used:
[1] = molecular target: T1, recombinant extracellular domain of human CD47-Fc fusion protein (human, UniProt Q08722 19-139); assay: ELISA on plate-coated recombinant human CD47 extracellular domain-Fc, A450; x axis printed as log10 values under the unit nM
T1 construct: extracellular domain; also called huCD47 ECD; CD47-Fc fusion protein (R&D systems); not shown: Fc part of the bought fusion protein; not described

[2] = molecular target: T2, cynomolgus CD47 on red blood cells (cynomolgus, UniProt A0A5F8AK49 19-323 (rhesus entry)); assay: flow cytometry on cynomolgus RBC, donor Cy745
T2 construct: whole, on cells; The assay target is the red blood cell; also called cynomolgus Red Blood Cells

human CD47 on cells [3] = molecular target: T3, human CD47 on cells (human, UniProt Q08722 19-323); assay: flow cytometry on human RBC, donor D835
T3 construct: also called hCD47; CD47 antigen

[4] = molecular target: T2, cynomolgus CD47 on red blood cells; assay: flow cytometry on cynomolgus RBC, donor Cy746
[5] = molecular target: T2, cynomolgus CD47 on red blood cells; assay: flow cytometry on cynomolgus RBC, donor Cy747
[6] = molecular target: T2, cynomolgus CD47 on red blood cells; assay: flow cytometry on cynomolgus RBC, donor Cy744
human ABCB1 on cells [7] = molecular target: T4, human ABCB1 on cells (human, UniProt P08183 1-1280); assay: flow cytometry, DX5 CD47 knock-out cells ('DX5 KT14 KO'), MFI
T4 construct: whole, on cells; also called MDR1; Pgp

human CD47 on cells [8] = molecular target: T3, human CD47 on cells; assay: flow cytometry on human RBC, donor D834
human CD47 on cells [9] = molecular target: T3, human CD47 on cells; assay: flow cytometry on human RBC, donor D837
human CD47 on cells [10] = molecular target: T3, human CD47 on cells; assay: flow cytometry on human RBC, donor D836
human ABCB1 on cells [11] = molecular target: T4, human ABCB1 on cells; assay: flow cytometry, DX5 WT cells (carry both ABCB1 and CD47), MFI
human CD47 on cells [12] = molecular target: T3, human CD47 on cells; assay: flow cytometry, DX5 B1 KO (ABCB1 knock-out) cells, % positive cells
human ABCB1 on cells [13] = molecular target: T4, human ABCB1 on cells; assay: receptor occupancy assay on A2780ADR cells, curve 'BiS-Direct Binding' (PE anti-human IgG Fc); the cells carry both antigens, the target is named after the receptor whose free signal falls in the same panel
human CD47 on cells [14] = molecular target: T3, human CD47 on cells; assay: receptor occupancy assay on A2780ADR cells (carry both ABCB1 and CD47), flow cytometry; free CD47 detected with Alexa 647 anti-hCD47 CC2C6 (competitor), direct binding with PE anti-human IgG Fc
human ABCB1 on cells [15] = molecular target: T4, human ABCB1 on cells; assay: flow cytometry, DX5/ADR CD47 WT cells (carry both ABCB1 and CD47), % positive cells
human ABCB1 on cells [16] = molecular target: T4, human ABCB1 on cells; assay: flow cytometry, DX5 CD47 KO cells, % positive cells
human ABCB1 on cells [17] = molecular target: T4, human ABCB1 on cells; assay: as above; remark: listed apart in the source
human CD47 on cells [18] = molecular target: T3, human CD47 on cells; assay: receptor occupancy assay on A2780ADR cells, curve 'BiS-Direct Binding' (PE anti-human IgG Fc); the cells carry both antigens, the target is named after the receptor whose free signal falls most in the same panel
human CD47 on cells [19] = molecular target: T3, human CD47 on cells; assay: flow cytometry, DX5 B1 KO (ABCB1 knock-out) cells, % positive cells; remark: listed apart in the source

Row | % Positive [2] | % Positive (human CD47 on cells [3]) | % Positive [4] | % Positive [5] | % Positive [6] | % Positive (human CD47 on cells [8]) | % Positive (human CD47 on cells [9]) | % Positive (human CD47 on cells [10]) | Binder | further results
1 |  |  |  |  |  |  |  |  | 15D3 hmz DD/KT14 KK/MRK16 hmz bispecific antibody (bispecific antibody, human IgG1, the general methods state a human kappa constant region) heavy 1: not shown heavy 2: not shown VL: DIVMTQTPLSSPVTLGQPASISCRSSQSIVHSTGNTYLEWYQQRPGQPPRLLIYKISNRFSGVPDRFSGSGAGTDFTLKISRVEAEDVGVYYCFQASHFPRTFGGGTKLEIKR | EC50 (read off the curve) [1]: ~0.08 nM
2 | 0.7% | 0.4% | 2% | 3.7% | 0.5% | 0.4% | 0.5% | 0.3% | ABCB1XCD47 KBisP1.1 (15D3 HC KK/KT14 HC DD/MRK16 LC) (bispecific antibody, human IgG1, kappa, also called KNJYBisP1.1) heavy 1: not shown heavy 2: not shown light: DVLMTQTPVSLSVSLGDQASISCRSSQSIVHSTGNTYLEWYLQKPGQSPKLLIYKISNRFSGVPDRFSGSGSGTDFTLKISRVEAEDLGVYYCFQASHFPRTFGGGTKLEIKRTVAAPSVFIFPPSDEQLKSGTASVVCLLNNFYPREAKVQWKVDNALQSGNSQESVTEQDSKDSTYSLSSTLTLSKADYEKHKVYACEVTHQGLSSPVTKSFNRGEC | EC50 (read off the curve) (human ABCB1 on cells [7]): ~30 nM; EC50 (read off the curve) (human ABCB1 on cells [11]): ~10 nM
3 |  |  |  |  |  |  |  |  | KB1-1401 (bispecific antibody, human IgG1, kappa, also called 15D3DD KT14KK MRK16) heavy chain 1 (anti-ABCB1, DD): not shown heavy chain 2 (anti-CD47, KK): not shown light chain: DVLMTQTPVSLSVSLGDQASISCRSSQSIVHSTGNTYLEWYLQKPGQSPKLLIYKISNRFSGVPDRFSGSGSGTDFTLKISRVEAEDLGVYYCFQASHFPRTFGGGTKLEIKRTVAAPSVFIFPPSDEQLKSGTASVVCLLNNFYPREAKVQWKVDNALQSGNSQESVTEQDSKDSTYSLSSTLTLSKADYEKHKVYACEVTHQGLSSPVTKSFNRGEC | binding result (human CD47 on cells [12]): no binding (tested: about 660 nM); EC50 (read off the curve) (human ABCB1 on cells [13]): ~200 nM
4 |  |  |  |  |  |  |  |  | 15D3hmz HIR2/KT14 KbR1/B1VL6/CDR3v2a (bispecific antibody, human IgG1, kappa, Humanized ABCB1 x CD47 IgG1 bispecific with a common light chain) heavy 1: EVQLVESGGVVVQPGGSLRLSCAASGFTFSRYTMSWVRQAPGKGLEWVATISSGGGNTYYPDSVKGRFTVSRDNSKNSLYLQMNSLRTEDTALYYCARYGAGDAWFAYWGQGTLVTVSSASTKGPSVFPLAPSSKSTSGGTAALGCLVKDYFPEPVTVSWNSGALTSGVHTFPAVLQSSGLYSLSSVVTVPSSSLGTQTYICNVNHKPSNTKVDKRVEPKSCDKTHTCPPCPAPELLGGPSVFLFPPKPKDTLMISRTPEVTCVVVDVSHEDPEVKFNWYVDGVEVHNAKTKPREEQYNSTYRVVSVLTVLHQDWLNGKEYKCKVSNKALPAPIEKTISKAKGQPREPQVCTLPPSREEMTKNQVSLSCAVKGFYPSDIAVEWESNGQPENNYKTTPPVLDSDGSFVLVSKLTVDKSRWQQGNVFSCSVMHEALHNHYTQKSLSLSPG heavy 2: not shown light: DIVMTQSPLSLPVTPGEPASISCRSSQSLVHSNGNTYLEWYLQKPGQSPQLLIYKVSNRFSGVPDRFSGSGSGTDFTLKISRVEAEDVGVYYCFQGSHFPRTFGQGTKLEIKRTVAAPSVFIFPPSDEQLKSGTASVVCLLNNFYPREAKVQWKVDNALQSGNSQESVTEQDSKDSTYSLSSTLTLSKADYEKHKVYACEVTHQGLSSPVTKSFNRGEC | binding result (human CD47 on cells [14]): binds; EC50 (read off the curve) (human ABCB1 on cells [15]): ~0.8 nM; EC50 (read off the curve) (human ABCB1 on cells [16]): ~5 nM
5 | 10.6% | 1.4% | 57.7% | 74.5% | 7.9% | 2% | 1.6% | 1.1% | 15D3 hmz HIR2/KT14 KbR1/B1.89v1.huL1(KV2) (bispecific antibody, human IgG1, kappa, Humanized ABCB1 x CD47 IgG1 bispecific with a common light chain) heavy 1: EVQLVESGGVVVQPGGSLRLSCAASGFTFSRYTMSWVRQAPGKGLEWVATISSGGGNTYYPDSVKGRFTVSRDNSKNSLYLQMNSLRTEDTALYYCARYGAGDAWFAYWGQGTLVTVSSASTKGPSVFPLAPSSKSTSGGTAALGCLVKDYFPEPVTVSWNSGALTSGVHTFPAVLQSSGLYSLSSVVTVPSSSLGTQTYICNVNHKPSNTKVDKRVEPKSCDKTHTCPPCPAPELLGGPSVFLFPPKPKDTLMISRTPEVTCVVVDVSHEDPEVKFNWYVDGVEVHNAKTKPREEQYNSTYRVVSVLTVLHQDWLNGKEYKCKVSNKALPAPIEKTISKAKGQPREPQVCTLPPSREEMTKNQVSLSCAVKGFYPSDIAVEWESNGQPENNYKTTPPVLDSDGSFVLVSKLTVDKSRWQQGNVFSCSVMHEALHNHYTQKSLSLSPG heavy 2: not shown light: DIVMTQSPLSLPVTPGEPASISCRSSQTIVHSNGNTYLEWYLQKPGQSPQLLIYKVSKRFSGVPDRFSGSGSGTDFTLKISRVEAEDVGVYYCFQASHFPRTFGQGTKLEIKRTVAAPSVFIFPPSDEQLKSGTASVVCLLNNFYPREAKVQWKVDNALQSGNSQESVTEQDSKDSTYSLSSTLTLSKADYEKHKVYACEVTHQGLSSPVTKSFNRGEC | EC50 (read off the curve) (human ABCB1 on cells [17]): ~0.4 nM; EC50 (read off the curve) (human ABCB1 on cells [7]): ~50 nM; EC50 (read off the curve) (human CD47 on cells [18]): ~200 nM; EC50 (read off the curve) (human ABCB1 on cells [11]): ~30 nM; EC50 (read off the curve) (human CD47 on cells [19]): ~30 nM
6 | 98.8% | 98.9% | 99.4% | 99% | 99% | 99.1% | 99.1% | 98.9% | anti-CD47 monoclonal antibody 5F9 (antibody, IgG1, V domains shown, also called KT14; 5F9 KT14 mAb) VH: QVQLVQSGAEVKKPGASVKVSCKASGYTFTNYNMHWVRQAPGQRLEWMGTIYPGNDDTSYNQKFKDRVTITADTSASTAYMELSSLRSEDTAVYYCARGGYRAMDYWGQGTLVTVSS VL: DIVMTQSPLSLPVTPGEPASISCRSSQSIVYSNGNTYLGWYLQKPGQSPQLLIYKVSNRFSGVPDRFSGSGSGTDFTLKISRVEADVGVYYCFQGSHVPYTFGQGTKLEIK | EC50 (read off the curve) [1]: ~0.003 nM
7 | 0.4% |  | 1.5% | 5.7% | 0.4% |  |  |  | 15D3hmz16-1/KT14/MRK16v4a1 (bispecific antibody, V domains shown, Human IgG1/kappa bispecific with KK/DD charge-pair Fc; also called 15D3hmz16-1 KK/KT14 DD/MRK16v4a1 Bispecific; 15D316-1 DD/KT14 KK/MRK16v4a1 hmz LC) VH 1: EVQLVESGGVVVQPGGSLRLSCAASGFTFSRYTMSWVRQAPGKGLEWVATISSGGGNTYYPDSVKGRFTVSRDNSKNSLYLQMNSLRTEDTALYYCARYYRYDAWFAYWGQGTLVTVSS VH 2: QVQLVQSGAEVKKPGASVKVSCKASGYTFTNYNMHWVRQAPGQRLEWMGTIYPGNDDTSYNQKFKDRVTITADTSASTAYMELSSLRSEDTAVYYCARGGYRAMDYWGQGTLVTVSS VL: DIVMTQTPLSSPVTLGQPASISCRSSQSIVHSTGNTYLEWYQQKPGQPPRLLIYKISNRFSGVPDRFSGSGSGTDFTLKISRVEAEDVGVYYCFQASHFPRTFGQGTKLEIK | 
8 |  |  |  |  |  | 0.4% |  |  | 15D3hmz16-1/KT14/MRK16v4a12 (bispecific antibody, V domains shown, Human IgG1/kappa bispecific) VH 1: EVQLVESGGVVVQPGGSLRLSCAASGFTFSRYTMSWVRQAPGKGLEWVATISSGGGNTYYPDSVKGRFTVSRDNSKNSLYLQMNSLRTEDTALYYCARYYRYDAWFAYWGQGTLVTVSS VH 2: QVQLVQSGAEVKKPGASVKVSCKASGYTFTNYNMHWVRQAPGQRLEWMGTIYPGNDDTSYNQKFKDRVTITADTSASTAYMELSSLRSEDTAVYYCARGGYRAMDYWGQGTLVTVSS VL: DIVMTQTPLSSPVTLGQPASISCRSSQSIVHSTGNTYLEWYQQKPGQPPRLLIYKVSNRFSGVPDRFSGSGSGTDFTLKISRVEAEDVGVYYCFQASHFPRTFGQGTKLEIK | 
